Data published in US20250145696A1 (BIOVERATIV USA, published 2025).

Target: T1, human C1s (human, UniProt P09871 16-688)
T1 sequence: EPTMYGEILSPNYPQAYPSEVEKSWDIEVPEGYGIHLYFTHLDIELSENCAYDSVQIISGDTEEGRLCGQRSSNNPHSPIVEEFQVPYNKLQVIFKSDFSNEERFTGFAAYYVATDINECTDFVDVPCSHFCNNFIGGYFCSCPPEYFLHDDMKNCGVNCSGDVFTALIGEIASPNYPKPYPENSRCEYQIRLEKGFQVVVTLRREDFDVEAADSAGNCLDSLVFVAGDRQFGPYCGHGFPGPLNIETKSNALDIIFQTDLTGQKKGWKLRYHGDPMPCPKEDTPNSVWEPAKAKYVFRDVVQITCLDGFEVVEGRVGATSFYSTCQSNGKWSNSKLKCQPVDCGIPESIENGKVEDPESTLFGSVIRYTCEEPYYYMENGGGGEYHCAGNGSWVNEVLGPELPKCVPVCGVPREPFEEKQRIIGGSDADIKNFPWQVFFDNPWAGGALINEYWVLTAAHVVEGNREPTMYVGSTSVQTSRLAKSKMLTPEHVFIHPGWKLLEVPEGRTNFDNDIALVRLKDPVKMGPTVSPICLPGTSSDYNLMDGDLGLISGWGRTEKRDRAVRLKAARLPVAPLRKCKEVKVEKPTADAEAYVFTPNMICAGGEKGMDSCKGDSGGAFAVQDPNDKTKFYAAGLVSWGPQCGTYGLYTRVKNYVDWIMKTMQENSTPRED
Assay: cell-based or functional assay

IC50 (concentration associated to 50% of the maximum effect) on serum classical complement pathway (CP) activity, WIESLAB assay, inhibitory Emax model: 6.2 µg/mL
B1: BIVV009 (antibody, human IgG4 S228P, kappa, V domains shown)
VH: EVQLVESGGGLVKPGGSLRLSCAASGFTFSNYAMSWVRQAPGKGLEWVATISSGGSHTYYLDSVKGRFTISRDNSKNTLYLQMNSLRAEDTALYYCARLFTGYAMDYWGQGTLVTVSS
VL: QIVLTQSPATLSLSPGERATMSCTASSSVSSSYLHWYQQKPGKAPKLWIYSTSNLASGVPSRFSGSGSGTDYTLTISSLQPEDFATYYCHQYYRLPPITFGQGTKLEIKR
